From paper PMC6235889, “Conformational ensemble of the human TRPV3 ion channel” (Nature Communications, 2018)

Target: the molecule itself
Assay: cryo-EM structure; apo TRPV3 T96A in PMAL-C8 amphipol, 50 mM Tris pH 8, 150 mM NaCl; Titan Krios 300 keV; C4 symmetry, ~3.4 Å

B1: full-length human TRPV3 containing the point mutation T96A (natural protein, UniProt Q8NET8-1 1-790, looked up)
chain: MKAHPKEMVPLMGKRVAAPSGNPAILPEKRPAEITPTKKSAHFFLEIEGFEPNPTVAKTSPPVFSKPMDSNIRQCISGNCDDMDSPQSPQDDVTEAPSNPNSPSAQLAKEEQRRKKRRLKKRIFAAVSEGCVEELVELLVELQELCRRRHDEDVPDFLMHKLTASDTGKTCLMKALLNINPNTKEIVRILLAFAEENDILGRFINAEYTEEAYEGQTALNIAIERRQGDIAALLIAAGADVNAHAKGAFFNPKYQHEGFYFGETPLALAACTNQPEIVQLLMEHEQTDITSRDSRGNNILHALVTVAEDFKTQNDFVKRMYDMILLRSGNWELETTRNNDGLTPLQLAAKMGKAEILKYILSREIKEKRLRSLSRKFTDWAYGPVSSSLYDLTNVDTTTDNSVLEITVYNTNIDNRHEMLTLEPLHTLLHMKWKKFAKHMFFLSFCFYFFYNITLTLVSYYRPREEEAIPHPLALTHKMGWLQLLGRMFVLIWAMCISVKEGIAIFLLRPSDLQSILSDAWFHFVFFIQAVLVILSVFLYLFAYKEYLACLVLAMALGWANMLYYTRGFQSMGMYSVMIQKVILHDVLKFLFVYIVFLLGFGVALASLIEKCPKDNKDCSSYGSFSDAVLELFKLTIGLGDLNIQQNSKYPILFLFLLITYVILTFVLLLNMLIALMGETVENVSKESERIWRLQRARTILEFEKMLPEWLRSRFRMGELCKVAEDDFRLCLRINEVKWTEWKTHVSFLNEDPGPVRRTDFNKIQDSSRNNSKTTLNAFEEVEEFPETSV
notes: Transient receptor potential vanilloid channel 3 (TRPV3), human, full length, with the stabilising point mutation T96A; Homotetramer; Residues 1-117, which include T96A, were not resolved in the reconstructions; No removal of the FLAG tag is described; also called hTRPV3; TRPV3_(T96A); source: Sf9 insect cells (baculovirus), purified (anti-FLAG resin, size exclusion), reconstituted in PMAL-C8 …
For B1, the “stoichiometry N” value was 4.
